Sequences and labels used below:
B1: Integrator complex subunit 12, residues 155 to 213; numbered along this chain, Q96CB8 (parent)
chain: AMEMGLACVVCRQMMVASGNQLVECQECHNLYHRDCHKPQVTDKEANDPRLVWYCARCT

± gives the uncertainty stated by the source.

In the data set the parent is B1. Nature of the data set: abundance fitness (aPCA) (normalised: wild type 0, dead -1); higher = more abundant; growth selection in yeast, the domain comes from the species named. As to conditions: Homo sapiens.
Take AMEMGLACVVCRQMMVASGNQLVECQECHPLYHRDCHKPQVTDKEANDPRLVWYCARCT [N30P]: the abundance fitness was -0.706 ± 0.11. Regarding AMEMGLACVVCRQMMVASGNQLVECQECHNLYHRDCHKPQVTDKEANDTRLVWYCARCT [P49T], the abundance fitness is 0.023 ± 0.073.

As to AMEMGLACVVCRQMMVASGNQLVECQECHNLYHRDCHKPQVTDKEANDNRLVWYCARCT [P49N], the abundance fitness is -0.17 ± 0.12. In the case of AMEMGLACVVCRQMMVASGNQWVECQECHNLYHRDCHKPQVTDKEANDPRLVWYCARCT [L22W], the abundance fitness is -0.113 ± 0.05. Consider AMEMGLACVVCRQMMVASGNQGVECQECHNLYHRDCHKPQVTDKEANDPRLVWYCARCT [L22G], for which the abundance fitness was found to be 0.013 ± 0.035.

On to AMEMGLACVVCRQMMVASGNQCVECQECHNLYHRDCHKPQVTDKEANDPRLVWYCARCT [L22C], for which the abundance fitness was -0.03 ± 0.035.

Consider AMEMGLACVVCRQMMVASGNQLVECQECHNLYPRDCHKPQVTDKEANDPRLVWYCARCT [H33P], for which the abundance fitness is -0.72 ± 0.051. Then AMEMGLACVVCRQMMVASGNQLVECQECHNLYMRDCHKPQVTDKEANDPRLVWYCARCT [H33M], with -0.882 ± 0.084. AMEMGLACVVCRQMMVASGNQLVECQECHNLYYRDCHKPQVTDKEANDPRLVWYCARCT [H33Y]: the abundance fitness is -0.795 ± 0.047. Consider AMEMGLACVVCRQMMVASGNQLVECQECHNLYHRDCHKPQVTDKEANDPRLVWYAARCT [C55A], for which the abundance fitness is -0.809 ± 0.066.

Regarding AMEMGLACVVCRQMMVASGNQLVECQECHNLYHRDCHKPQVTDKEANDPRLVWYLARCT [C55L], the abundance fitness is -1.09 ± 0.089. Then AMEMGLACVVCRQMMVASGNQLVECQECHNLYHRDCHKPQVTDKEANDPRLVWYYARCT [C55Y], with -0.913 ± 0.13. For the variant AMEMGLACVVCRQMMVASGNQLVECQECHNLYHRDCHKPQVTDKEANDPRWVWYCARCT [L51W], the abundance fitness was -0.108 ± 0.059. In the case of AMEMGLACVVCRQMMVASGNQLVECQECHNLYHRDCHKPQVTDKDANDPRLVWYCARCT [E45D], the abundance fitness came out at 0.005 ± 0.12.

In the case of AMEMGLACVVCRQMMVASGNQLVECQECHNLYHRDCHKPQVTDKPANDPRLVWYCARCT [E45P], the abundance fitness was -0.222 ± 0.078.

In the case of AMEMGLACVVCRQMMVASGNQLVECQECHNLYHRDCHMPQVTDKEANDPRLVWYCARCT [K38M], the abundance fitness was -0.05 ± 0.049. With AMEMGLACVVCRQMMVASGNQLVECQECHNLYHRDCHKPQVTDKEANDPRLVWYCARCD [T59D], the abundance fitness was -0.072 ± 0.17.

In the case of AMEMGLACVVCRQMMVASGNQLVECQECHNLYHRDCHKPQVTDKEANDPRLVWYCARCW [T59W], the abundance fitness is -0.387 ± 0.12.

As to AMEMGLACVVCRQMMVASGNQLVECQECHNLYHRDCHKPQVTDKEDNDPRLVWYCARCT [A46D], the abundance fitness is -0.092 ± 0.072. With AMEMGLACVVCRQMMVASGNQLVECQECHNLPHRDCHKPQVTDKEANDPRLVWYCARCT [Y32P], the abundance fitness is -0.611 ± 0.056.

Take AMEMGLACVVCRQMMVASGNQLVECQECHNYYHRDCHKPQVTDKEANDPRLVWYCARCT [L31Y]: the abundance fitness is 0.047 ± 0.038. The figure for AMEMGLACVVCRQMMVASGNQLVMCQECHNLYHRDCHKPQVTDKEANDPRLVWYCARCT [E24M] is -0.397 ± 0.085; for AMEMGLACVVCRQMMVASGNQLVECQECHNLYHMDCHKPQVTDKEANDPRLVWYCARCT [R34M] it is 0.005 ± 0.057. For AMEMGLACVVCRQMMVASGNWLVECQECHNLYHRDCHKPQVTDKEANDPRLVWYCARCT [Q21W], the abundance fitness is -0.223 ± 0.065. On to AMEMGLACVVCRQMMVASGNALVECQECHNLYHRDCHKPQVTDKEANDPRLVWYCARCT [Q21A], for which the abundance fitness is -0.026 ± 0.049. As to AMEMGLACVVCRQMMVASGNQLVECQECCNLYHRDCHKPQVTDKEANDPRLVWYCARCT [H29C], the abundance fitness was -0.185 ± 0.037. The figure for AMEMGLACVVCRQMMVASGNQLVECQECFNLYHRDCHKPQVTDKEANDPRLVWYCARCT [H29F] is -0.19 ± 0.036. With AMEMGLACVVCRQMMVASGNQLVECQECYNLYHRDCHKPQVTDKEANDPRLVWYCARCT [H29Y], the abundance fitness was -0.182 ± 0.037. AMEMGLACVVCRQMMVASGAQLVECQECHNLYHRDCHKPQVTDKEANDPRLVWYCARCT [N20A]: the abundance fitness was -0.03 ± 0.035. On to AMEMGLACVVCRQMMVASGTQLVECQECHNLYHRDCHKPQVTDKEANDPRLVWYCARCT [N20T], for which the abundance fitness was -0.007 ± 0.038. Take AMEMGLACVVCRQMMVASGVQLVECQECHNLYHRDCHKPQVTDKEANDPRLVWYCARCT [N20V]: the abundance fitness was -0.049 ± 0.032.

For AMEMGLACVVCRQMMVASGNQLVEDQECHNLYHRDCHKPQVTDKEANDPRLVWYCARCT [C25D], the abundance fitness is -0.655 ± 0.074. With AMEMGLACVVCRQMPVASGNQLVECQECHNLYHRDCHKPQVTDKEANDPRLVWYCARCT [M15P], the abundance fitness stood at 0.084 ± 0.046. Consider AMEMGLACVVCRQMYVASGNQLVECQECHNLYHRDCHKPQVTDKEANDPRLVWYCARCT [M15Y], for which the abundance fitness is -0.025 ± 0.034. In the case of AMEMGLACVVCRQMEVASGNQLVECQECHNLYHRDCHKPQVTDKEANDPRLVWYCARCT [M15E], the abundance fitness was -0.081 ± 0.07. AMEMGLACVVCRQMMVASGNQLVECQECHNLYHRPCHKPQVTDKEANDPRLVWYCARCT [D35P]: the abundance fitness is -0.215 ± 0.044. On to AMEMGLACVVCRQMMVASGNQLVECQECHNLYHRACHKPQVTDKEANDPRLVWYCARCT [D35A], for which the abundance fitness came out at 0.054 ± 0.036. Then AMEMGLACVVCRQMMVASGNQLWECQECHNLYHRDCHKPQVTDKEANDPRLVWYCARCT [V23W], with -0.045 ± 0.055; and AMEMGLACVVCRQMMVASGNQLEECQECHNLYHRDCHKPQVTDKEANDPRLVWYCARCT [V23E], with -0.251 ± 0.067. For AMEMGLACVVCRQMMVASGNQLVECQECHNLYHRDCHKPQVWDKEANDPRLVWYCARCT [T42W], the abundance fitness is -0.198 ± 0.048. With AMEMGLACVVCRQMMVASGNQLVECQECHNLYHRDCHKPQVEDKEANDPRLVWYCARCT [T42E], the abundance fitness was -0.066 ± 0.046. Then AMEMGLACVVCRQMMVASGNQLVECQECHNLYHRDCHKPQVDDKEANDPRLVWYCARCT [T42D], with -0.107 ± 0.071; and AMEMGLACVVCRQMMVASGNQLVECQECHNLYHRDCHKPQVFDKEANDPRLVWYCARCT [T42F], with -0.24 ± 0.094.

For the variant AMEMGLACVVCRQMMVASGNQLVECQECHNLYHRDCHKPQVGDKEANDPRLVWYCARCT [T42G], the abundance fitness came out at 0 ± 0.038. Take AMEMGLACVVCRQMMVASGNQLVECQECHNLYHRDCHKPQVNDKEANDPRLVWYCARCT [T42N]: the abundance fitness was -0.041 ± 0.053.
